Results published in patent US20250288675A1 (published 2025).

Columns and labels:
[1] = biological target: T1, MAGE-A1 peptide on HLA-C*07:02 (human); experiment: killing
T1 peptide: VRFFFPSL

[2] = biological target: T2, MAGE-A1 peptide on HLA-A*02:01 (human); experiment: killing
T2 peptide: KVLEYVIKV

[3] = biological target: T3, PRAME peptide on HLA-A*02:01 (human); experiment: killing
T3 peptide: SLLQHLIGL

[4] = biological target: T2, MAGE-A1 peptide on HLA-A*02:01; experiment: activation reporter or marker
Source text: (§1) Reporter HEK293T cells expressing exclusively HLA-A*02:01 and expressing a granzyme B-activated infrared fluorescent protein (IFP) were further engineered to express either MAGE-A1 or PRAME. The MAGE-A1 expressing cells were GFP-labeled, and the PRAME-positive cells were labeled with both GFP and CellTrace™ Violet to enable tracking in downstream flow cytometry readouts. When a TCR-T cell recognizes a target cell, it secretes cytotoxic granules into the target cell, triggering the target cell to become fluorescent (IFP-positive). The two target cells (i.e., PRAME- or MAGE-A1 positive) were mixed at a balanced ratio and co-cultured with MAGE-A1 TCR-T cells, PRAME TCR-T cells, or a multiplex product combining the two TCR-T cells. PRAME TCR-T cells and MAGE-A1 TCR-T cells were engineered from T cells from the same donor. The TCR-T cells corresponded to pan T cells engineered by lentivirus transduction using a delivery vector employing MGTM modification and co-delivering CD8α and CD8β co-receptor as described above (such as a Table 1). Donor-matched non-engineered T cells (NTC) were also included as a control. The experiment then measured the proportion of each subset of target (GFP-positive, MAGE-A1 target; GFP/CTV-positive, PRAME target) getting recognized and targeted by TCR-T cells as measured by the proportion of GFP or GFP/CTV becoming IFP-positive. […]

[5] = biological target: T4, MAGE-C2 peptide on HLA-B*07:02 (human); experiment: killing
T4 peptide: RAREFMELL

[6] = biological target: T3, PRAME peptide on HLA-A*02:01; experiment: activation reporter or marker
Source text: as §1

[7] = biological target: T5, HPV16 E7 peptide on HLA-A*02:01 (human); experiment: killing
T5 peptide: YMLDLQPET

B1: MAGEA1 TCR 32-41 (TCR, V domains shown)
Valpha: TQLLEQSPQFLSIQEGENLTVYCNSSSVFSSLQWYRQEPGEGPVLLVTVVTGGEVKKLKRLTFQFGDARKDSSLHITAAQPGDTGLYLCAGDESISYGKLTFGQGTILTVHP
Vbeta: DAGVIQSPRHEVTEMGQEVTLRCKPISGHDYLFWYRQTMMRGLELLIYFNNNVPIDDSGMPEDRFSAKMPNASFSTLKIQPSEPRDSAVYFCASSFLGWNEKLFFGSGTQLSVL
binding result [1]: recognises | binding result [2]: no recognition

B2: PRAME-425-366 (TCR, V domains shown)
Valpha: AQTVTQSQPEMSVQEAETVTLSCTYDTSESDYYLFWYKQPPSRQMILVIRQEAYKQQNATENRFSVNFQKAAKSFSLKISDSQLGDAAMYFCAYRKTSYDKVIFGPGTSLSVIP
Vbeta: AAGVIQSPRHLIKEKRETATLKCYPIPRHDTVYWYQQGPGQDPQFLISFYEKMQSDKGSIPDRFSAQQFSDYHSELNMSSLELGDSALYFCASSFARLEGRDNEQFFGPGTRLTVL
binding result [3]: recognises | binding result [4]: no recognition

B3: MAGEC2 TCR 8-3 (TCR, V domains shown)
Valpha: ILNVEQSPQSLHVQEGDSTNFTCSFPSSNFYALHWYRWETAKSPEALFVMTLNGDEKKKGRISATLNTKEGYSYLYIKGSQPEDSATYLCASGSGGATNKLIFGTGTLLAVQP
Vbeta: GEEVAQTPKHLVRGEGQKAKLYCAPIKGHSYVFWYQQVLKNEFKFLISFQNENVFDETGMPKERFSAKCLPNSPCSLEIQATKLEDSAVYFCASSQSRSLRGTEAFFGQGTRLTVV
binding result [5]: recognises

B4: MAGEA1-278-1479 (TCR, V domains shown)
Valpha: EDQVTQSPEALRLQEGESSSLNCSYTVSGLRGLFWYRQDPGKGPEFLFTLYSAGEEKEKERLKATLTKKESFLHITAPKPEDSATYLCAVSYGQNFVFGPGTRLSVLP
Vbeta: EAGVTQSPTHLIKTRGQQATLRCSPISGHTSVYWYQQALGLGLQFLLWYDEGEERNRGNFPPRFSGRQFPNYSSELNVNALELEDSALYLCASSLGQLNTEAFFGQGTRLTVV
binding result [1]: no recognition | binding result [2]: recognises | binding result [6]: no recognition

B5: E7-11-28 (TCR, V domains shown)
Valpha: GQQVMQIPQYQHVQEGEDFTTYCNSSTTLSNIQWYKQRPGGHPVFLIQLVKSGEVKKQKRLTFQFGEAKKNSSLHITATQTTDVGTYFCAGIGSSNTGKLIFGQGTTLQVKP
Vbeta: EPEVTQTPSHQVTQMGQEVILRCVPISNHLYFYWYRQILGQKVEFLVSFYNNEISEKSEIFDDQFSVERPDGSNFTLKIRSTKLEDSAMYFCAITGRVSYEQYFGPGTRLTVT
binding result [7]: recognises
